Test results reported in patent US20040247566A1.

Target: human IL-9 receptor (human) (UniProt Q01113)
Test: cell-based or functional assay

Sequence of UniProt Q01113 (Q01113 41-521, chain 1 of 2): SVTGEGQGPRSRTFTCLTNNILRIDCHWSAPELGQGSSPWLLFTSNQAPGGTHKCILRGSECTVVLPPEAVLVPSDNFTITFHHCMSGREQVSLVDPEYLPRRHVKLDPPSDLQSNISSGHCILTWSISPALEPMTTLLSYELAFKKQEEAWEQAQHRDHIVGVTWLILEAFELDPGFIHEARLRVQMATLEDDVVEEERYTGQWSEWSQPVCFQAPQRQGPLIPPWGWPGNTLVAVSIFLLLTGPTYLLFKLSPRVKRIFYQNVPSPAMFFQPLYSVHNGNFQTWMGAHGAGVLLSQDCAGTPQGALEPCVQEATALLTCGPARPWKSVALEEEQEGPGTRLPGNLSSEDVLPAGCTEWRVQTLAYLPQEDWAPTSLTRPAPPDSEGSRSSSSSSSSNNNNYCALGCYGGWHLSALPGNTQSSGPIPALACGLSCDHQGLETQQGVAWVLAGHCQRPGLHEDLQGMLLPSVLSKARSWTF
Sequence of UniProt Q01113 (P31785 23-369, chain 2 of 2, further chain): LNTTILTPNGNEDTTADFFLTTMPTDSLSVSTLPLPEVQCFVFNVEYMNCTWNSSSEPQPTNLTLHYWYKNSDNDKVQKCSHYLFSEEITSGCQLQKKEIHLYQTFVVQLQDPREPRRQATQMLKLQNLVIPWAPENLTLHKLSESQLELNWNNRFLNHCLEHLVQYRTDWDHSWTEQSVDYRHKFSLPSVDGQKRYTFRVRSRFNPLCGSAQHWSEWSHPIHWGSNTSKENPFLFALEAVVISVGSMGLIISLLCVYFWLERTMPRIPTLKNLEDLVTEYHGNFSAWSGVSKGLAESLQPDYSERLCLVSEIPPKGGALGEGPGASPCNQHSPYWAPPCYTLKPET

IC50, antagonism of IL-9 mediated Mo7e proliferation (0.357 nM wild-type IL-9) [nM] | Substance | IC50, antagonism of IL-9-mediated eosinophil survival (7.14 nM wild-type IL-9) [nM]
1.15 | Amino-terminal Fc-fusion construct of the K126E/Q133K IL-9 mutein (Fc fusion) | 25.5
0.66 | Carboxy-terminal Fc-fusion construct of the K126E/Q133K IL-9 mutein (Fc fusion) | 4.92
